Data from the nanobody polyreactivity screen of Harvey et al. (2022).

Assay: yeast display, Sf9 membrane polyspecificity reagent, FACS + sequencing; frameworks hold sequencing errors
Summary of the method: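 Nanobodies came from a synthetic yeast display library in Saccharomyces cerevisiae BJ5465, induced with galactose for 36–48 hours and stained for 1 hour at 4 °C with 10% biotinylated, detergent-solubilized Sf9 membrane reagent. Cells were enriched on streptavidin microbeads and then FACS-sorted, with low and high (top ~1%) gates set on anti-HA fluorescence for expression and streptavidin fluorescence for reagent binding. Each polyreactivity label reflects the gate a clone came from. Genes were amplified by colony PCR, sequenced by MiSeq 2 × 250 and filtered by CDR length.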

Sequence	polyreactivity (PSR sort gate)
QVQLVESGGGLVQAGGSLRLSCAASGYTFGNYAMGWYRQAPGKERELVAGISWSGGSTYYADSVKGRFTISRDNAKNTVYLQMNSLKPEDTAVYYCATRVQGYHNGWYDYWGQGTQVTVSS	high polyreactivity
PVQLVESGGGLVQAGGSLLLSCAASGRTFIYYAMGWYRQAPGKERELVAGISRHGGRTYYADSVKGRFTISRDNAKNTVYLQMNSLKPEDTAVYYCNAYPPSGHDYWGQGTQVTVSS	high polyreactivity
QVQLVESGGGLVQAGGSLRLSCAASGRTFPYNAMGWYRQAPGKEMELVAVISSSGGSTYYADSVKGRFTISRDNAKNTVYLQMNSLKPEDTAVYYCNTRPYYYRRPGYRYSGYDYWGQGTQVTVSS	high polyreactivity
QVQLVESGGGLVQAGGSLRLSCAASGITFDKNTMGWYRQAPGKERELVAAISARGGSTYYADSVKGRFTISRDNAKYTVYLQMNSLKPEDTAVYYCAATRSYSYRTVYRRKYNYWGQGTQVTVSS	high polyreactivity
QVQLVESGGGIVQAGGSLRLSCAASGRTFFYYAMGWYRQAPGKERELVAAITTDGGTTYYADSVKGRFTISRDNAKNTVSLQMNSLKPEDTAGYYCAADASYQYYPYDYWGQGTQVTVSS	low polyreactivity
QVQLVESGGGLVQAGGSLRLSLAASGSIFRAYVMGWYRPAPGKERELVAAITRSGARTYYADSLKGRFTLSRDNAKNTVYLQMNSLKPEDTAVYYCAAETSGSQSKLYYYWGQGTQVTVSS	high polyreactivity
QVQLVESGGGLVQAGGSLRLSCAASGSIMGWYRQAPGKERELVAAISRGGSTYYADSVKGRFTISRDNAKNTVYLQMNSLKPEDTAVYYCAAKTGGSRSRFEYWGQGTQVTVSS	high polyreactivity
QVQLVESGGGLVQAGGSLRLSCAASGNIFYYYAMGWYRQAPGKERELVADITSGGDTDYADSVKGRFTISRDNAKNTVYLQMNSLKPEDTAVYYCNAQYYFHVTYDYWGQGTQVTVSS	low polyreactivity
QVQLVESGGGLVQAGGSLRLSCAASGRIFSGYAMGWYRQAPGKERELVAAITSGGSTNYADSVKGRFTISRDNAKNTVYLQMNSLKPEDTAVYYCAADSREVSTTAYYYWGQRTQVTVSS	low polyreactivity
QVQLVESGGGLVQAGGSLRLSCAASGIIFPYYAMGWYIQAPGKERELVASISSRGSSTYYADSVKGRFTISRDNAKNTVFLQMNSLKPEDTAVYYSAAQNFYRYYWGQGTQVTVSS	high polyreactivity
QVQLVESGGGLVQAGGSLRLSCAASGSIFSANTMGWYRQEPGKEREFVAGITTSAGRTYYADSVKGRFTISRDNAKNTVYLQMNSLKPEDTAVYYCAARVWRSYNYWGQGTQVTVSS	high polyreactivity
QVQLVESGGGLVQAGGSLRLSCAASGLTFFPNAMGWYRQAPGKERELVAAISNNGGRTYYADSVKGRFTISRDNAKNTVYLQMNSLKPEDTAVYYCAKYLSPGERHSYDYWGQGTQVTVSS	high polyreactivity
QVQLVESGGGLVQAGGSLRLSCAASGFIFYRYAMGWYRQAPGKERELVAAITGGGSTYYADSVKGRFTISRDNAKNTVYLQMNSLKPEDTAVYYCNAVTYGWTAYDKGKRYDYWGQGTQVTVSS	high polyreactivity
QVQLVDSGGGLVQAGGSLRLSCAASGFIFVKYAMGWYRQAPGKERELVAAITTSGTGTFYADSVKGRFTISRDNAKNTVYLQMNSLKPEDTAVYYCNALGHPGDDWGQGTQVTVSS	low polyreactivity
QVQLVESGGGLVQARGSLRLSCAASVGTFGSNNMGCYRQAPGKDRELVAAITSGVSTNYADSVKGRFTITRYIAKNTVYLQMNSLKPEDTAVNYSAAGTQAHAYVVRPIEMDYWGQGTQVTVSS	low polyreactivity
QVQLVESGGGLVQAGGSLRLSCAASGRIFVFYAMGWYRQAPGKERELVAAITSGGSTYYADSVKGRFTISRDNAKNTVYLQMNSLKPEDTAVYYCAARGRVSWSTYWYEYWGQGTQVTVSS	high polyreactivity
QVQLVESGGGLVQAGGSLRLSCAASGFIFYDYTMGWYRQAPGKERELVAAISSRGGSTYYADSVKGRFTISRDNAKNTVYLQMNSLKPEDTAVYYCAAYWSQQTYEYWGQGTQVTVSS	high polyreactivity
QVQLVESGGGLVQAGGSLRLSCAASGFTFPWNVMGGYRQAPGKERELVAAITYDGGGTYADSVKGRFTISRDNAKNTVYLQMNSLKPEDTAVYYCNADLIYGEEYDYWGQGTQVTVSS	low polyreactivity
QVQLVESGGGLVQAGGSLRLSCAASGFTFNRNAMGWYRQAPGKERELVAAITKRGGSTFYADSVKGRFTISRDNAKNTVYLQMNSLKPEDTAVYYCAASVATYFPRHYDYWGQGTQVTVSS	high polyreactivity
QVQLVESGGGLVQAGGSLRLSCAASGFIFRYNAMGWYRQAPGKERELVARISSGGSTNYADSVKGRFTISRDNAKNTVYLQMNSLKPEDTAVYYCAVKQYWYIWSGYGYDYWGQGTQVTVSS	high polyreactivity
QVQLVESGGGLVQAGGSLRLSCAASGSTFYNYAMGWYRQAPGKERELVAAISSSGGRTYYADSVKGRFTISRDNAKNTVYLQMNSLKPEDTAVYYCAASGRKNGMNYWGQGTQVTVSS	high polyreactivity
QVQRVESGGGLVQAGGSLRLSCAASGRIFYFNAMGWYRQAPGKEWELVAVINSSGSTDYADSVKGRFTISRDNAKNTVYLQMNSLKPEDTAVYYCAAEVTPSGYGYWGQGTQVTVSS	low polyreactivity

Sequence	polyreactivity (PSR sort gate)
QVQLVESGGGLVQAGGSLRLSCAASGSTFLLYAMGWYRQAPGKERELVATISWGGDGTYYADSVKGRFTISRDHAKNTDYLQMNSLKPDDTAVYDCAAQSYLVQFYFLYYYWGQGTQVTVSS	low polyreactivity
QVQLVESGGGLVQAGGSIRLSCAASGITFGRNTMGWYRQAPAKERELVAAIDSGGNTYADSVKGRFTISRDNAKNTVYLQMNSLKPEDTAVYYCAVDGYYLYYDYDYWGQGTQVTVSS	low polyreactivity
QVQLVESGGGLVQAGGSLRLSCAASGRTFEGYAMGWYRQAPGKERELVAAISNSGGSTYYADSVKGRFTIARDNAKNTVYLQMNSLKPEDTAVYYCAALSRIPRYGYWGQGTQVTVSA	high polyreactivity
QVQLVESGGGLVQAGGSLRLSCAASGRIFGGYAMGWYRPAPGKERELVAAISWRGGTTYYADSVKGRFTISRDNAKNTVYLQMNSLKPEDTAVYYCNADVVRYRHWHRGDYWGQGTQVTVSS	low polyreactivity
QVQLVESGGGLVQAGGSLRLSCAASGNIFSVYAMGWYRQAPGKERELVAAISSSGGRTYYADSVKGRFTISRDNAKNTVYLQMNSLKPEDTAVYYCNTAGYDYYSTQAYDYWGQGTQVTVSS	high polyreactivity
QVQLVESGGGLVQAGGSLRLSCAASGRTFSNYAMGWYRQAPGKERELVAAISSGGSTNYADSVKGRFTISRDNAKNTVYLLMNSLKPEDTAVYYCAARQRAYYGPGFDYWGQGTQVTVSS	low polyreactivity
QVQLLEIGGGLVQAGGSLRQSCMASGSILGDRMSWYRQAPGKEHELVATIFDGGITYYADSMKGRFTISRDNAKNTVYLQMNSLRPEDTAVYYCGASFDGYRYHVYCGQGTQVTVSS	low polyreactivity
QVQLVESGGGLVQAGGSLRLSCAASGSIFGTYAMGWYRQAPGKARELVAAITGSGGRTYYADSVKGRFTISRDNAKNTVYLQMNSLKPEDTAVYYCNKVVYVRSYPPRYDYWGQGTQVTVSS	high polyreactivity
QVQLVESGGGLVQAGGSLRLSCAASGFIFYLNAMGWSRKAPGKERELVAAISSSGGRTYYADSVKGRFTISRDNAKNTVYFQMNSLKAEDTAVYYCNAVTLYRSRTDGYWGQGTQVTVSS	high polyreactivity
QVQLVESGGGLVQAGGSLRLSCAASGRTFRGNAMGWYRQAPGKERELVAAISWRGTSTYYADSVKGRFTISRDNAKNTVYLQMNSLKPEDTAVYYCNTQRQLGERFYDRSRQGDYWGQGTQVTVSS	high polyreactivity
QVQLVESGGGLVQAGGSLRLSCAASGSIFRNNAMGWYRQAPGKERELVAVINSRGGTTYYADSVKGRFTISRDNAMNPVYLQMNSLIPEDTAVYYCAARIRTSDRRYYWGQGTQVTVSS	high polyreactivity
QVHLVESGGGLVQAGGSLRLSCAASGSTFRSYVMGWSRQAPGKERELVAAISRGGTTYYADSVKGRFTISRDNAKNTVYLQMNSLKPEDTPVYYCAATRTTRFYTGSKMNYWGQGTQVTVSS	high polyreactivity
QVQIVESGGGLVQAGGSLRISCAASGFTFYPYTMGWYRQAPGKEREFVAAISWNCGSTYYADSVKGRFTISCDNAKNTVYLQMNSLKPEDSAVYYCAKRSYRSSARELDYWGQGTQVTVSS	low polyreactivity
HVHLVESGGGLVQAGGSLRLSCAASGRTFSTYAMGRYRQAPGKERELVATIRVSGSSTYYADSVKGRFTISRDNAKNTVYLQMNSLKQEDTEVYYCANRGLSRYYDYYYWGQGTQVTVSS	high polyreactivity
QVQLVESGGGLVQAGGSLRLSCAASGFTFSYNAMGWYRPAPGKERELVAVITKSGGSTYYADSVKGRFTISRDNAKNTVYLQMNSLKPEDTAVYYCNRQIKKLLTTHYYWGQGTQVTVSS	high polyreactivity
QVQLVESGVGLVQAGGTLRISCAASGSTLPGYAMGWYRPAPGKERELVAAITSRGGTTYYADSVKGRFTISRDNAKNTVYLQMNSLKPEDTAVYYCAAEVYYRSRVYPYYYSYDYWGQGTQVTVSS	high polyreactivity
QVQLVQSGGGLVQAGGSLRLSCAAYGSTFVRYVKGWYRQAPGKERELVAAISRRGGSTYYADSVKGRFRISRDNAKNTVFLQMNSLKPEDTAVSYCARTVGYRTLLESDSWGQGTQVTVSS	high polyreactivity
QVQLVESGGGLVQAGGSLRLSCAASGRIFFTNAMGWYTQAPGKERELVAAISKSGARTYYADSVKGRFTISRDNAKNTVYLLMNSLKPEDTAVYYCAADVCVYGYDYWGQGTQVTVSS	high polyreactivity
QVQLVESGGGLFQAGGSLRLSCAASGLTFQRYDMGWYRQAPVKEIELVAAINYSGGRTYYADSVKGRFTISRDNAKNTVYLQMNSLKPEDTAVYYCAARVRNTYVYQSWDGMYYWGQGTQVTVSS	high polyreactivity
QVQLVESGGGLVQAGGSLRLSCAAYGSTFGHYAMGWDRQAPGKERELVAAISSSGGSTYYADSVKGRFTISRDNAKNTVYLQMNSLKPEDTAVYYCAARYYHYSYAFGYWGQGTQVTVSS	high polyreactivity
QVQLVESGGGLVQAGGSLRLSCAASGRIFYINAMGWYRQAPGKERELVASITGSGGRTYYADSVKGRFTISRDNAKNTVYLQMNSLKPEDTAVYYCNADLYVGYLYYLYDYWGQGTQVTVSS	low polyreactivity
